Data published in patent publication US8598081B2, “Specific delivery of agrochemicals” (priority 2010, dated 2013).

Legend:
gum arabic = assay: VHH binding to gum arabic in ELISA; design: species or system acacia tree
Protocol: Titration of VHH antibody fragments was performed on ELISA plates (Maxisorp, Nunc) coated with 100 μl per well 100 μg/ml gum arabic in 50 mM carbonate pH 9.6. Plates were coated at 4° C. overnight and coating was continued at room temperature for 1 hour on the next day. Plates were washed three times with PBS/0.05%-TWEEN®-20 and blocked with 5% skimmed milk in PBS for 1 hour. Four-fold serial dilutions of purified VHH antibody fragments were prepared in 1% MPBS/0.05%-TWEEN®-20 in polypropylene 96-well plates. Antibody concentrations ranged from 3 μg/ml to 12 ng/ml. Antibody dilutions were transferred to the gum arabic-coated plates and VHH antibody fragments were allowed to bind for 1 hour at room temperature. Bound VHH were detected with sequential incubations with monoclonal mouse anti-histidine antibodies (Abd Serotec) and rabbit anti-mouse IgG whole molecule antibodies conjugated with alkaline phosphatase (RaM/AP) (Sigma) in 1% MPBS/0.05%-TWEEN®-20. Unbound antibodies were removed by washing three times with PBS/0.05%-TWEEN®-20 after each antibody incubation. The plates were washed an additional two times with PBS and 100 μl pNPP disodium hexahydrate substrate (Sigma) was added to each well. The absorbance at 405 nm was measured and plotted as function of antibody concentration (see Table 1).

potato lectin = target: T1, potato lectin (Solanum tuberosum, UniProt Q9S8M0); assay: VHH binding to potato lectin in ELISA; conditions: Table 2; Blank (no antigen coating); VHH 3 μg/ml
T1 construct: purchased Sigma
T1 sequence (Q9S8M0 whole entry, looked up): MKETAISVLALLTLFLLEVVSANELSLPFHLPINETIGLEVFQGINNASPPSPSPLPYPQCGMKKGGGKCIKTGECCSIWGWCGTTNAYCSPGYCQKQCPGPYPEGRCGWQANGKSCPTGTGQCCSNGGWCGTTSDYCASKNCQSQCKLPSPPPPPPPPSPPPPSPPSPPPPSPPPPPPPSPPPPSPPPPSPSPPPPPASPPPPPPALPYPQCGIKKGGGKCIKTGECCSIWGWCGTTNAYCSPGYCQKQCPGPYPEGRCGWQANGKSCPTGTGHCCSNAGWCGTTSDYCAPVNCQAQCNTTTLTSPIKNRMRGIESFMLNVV
Protocol: ELISA plates (Maxisorp, Nunc) coated with 100 μl per well 100 μg/ml potato lectin (Sigma) in PBS were coated at 4° C. overnight and coating was continued at room temperature for 1 hour on the next day. Plates were washed three times with PBS/0.05%-TWEEN®-20 and blocked with 5% skimmed milk in PBS for 1 hour. VHH (3 μg/ml) were transferred to the potato lectin-coated plates and VHH antibody fragments were allowed to bind for 1 hour at room temperature. Bound VHH were detected with sequential incubations with monoclonal mouse anti-histidine antibodies (Abd Serotec) and rabbit anti-mouse IgG whole molecule antibodies conjugated with alkaline phosphatase (RaM/AP) (Sigma) in 1% MPBS/0.05%-TWEEN®-20. Unbound antibodies were removed by washing three times with PBS/0.05%-TWEEN®-20 after each antibody incubation. The plates were washed an additional two times with PBS and 100 μl pNPP disodium hexahydrate substrate (Sigma) was added to each well and the absorbance at 405 nm was measured (see Table 2).

[1] = test system: leaf surface of potato leaves; assay: VHH binding to non-fixed leaf discs, potato; design: species or system potato (variety Desiree); conditions: 5 μg/ml, detection with anti-histidine Alexa-488
Protocol: VHH binding to non-fixed leaf discs of potato (variety Desiree), black nightshade, grass, wheat or azalea was investigated. For comparison, binding of CBM3a to non-fixed leaf discs of potato (variety Desiree) was analyzed in parallel. Leaf discs were prepared by punching a fresh potato leaf with a 5 mm belt hole puncher tool. Leaf discs were put immediately in wells of a 96-well plate containing 200 μl per well 5% MPBS or PBS, and incubated for 30 minutes. Leaf discs were transferred to solutions containing 5 μg/ml VHH antibody fragment, respectively, 5 μg/ml CBM3a in 2% MPBS or PBS and incubated for 60-90 minutes. Unbound VHH or CBM3a proteins were removed by washing three times with 2% MPBS or PBS. Bound VHH or CBM3a proteins were detected with incubation with monoclonal mouse anti-histidine antibodies directly conjugated with Alexa-488 fluorescent dye (Abd Serotec) in 1% MPBS for 1 hour. Unbound antibodies were removed by washing three times with PBS. Leaf discs were put on glass slides, covered with cover slips, and analyzed by microscopy or on a macrozoom microscope system (Nikon) or a SP5 confocal microscope system (Leica).

B1: VHH 5D4: VHH sequence; SEQ ID NO:20 by order of the list (protein, listed as Lama glama)
VHH: QVQLQESGGGLVQPGGSLRLSCAASGFDMRRFGIGWFRQVAGKEREGVSCSNVHDGTTYYTNDVKGRFTIVRDNTKNMLYLQMNKLRPEDTAVYSCATTDCEATAWGTYRGYFGQGTQVTVSS
modifications: 5D4
- absorbance at 405 nm (gum arabic; Table 2, gum arabic coating, VHH 3 μg/ml): 0.530
- absorbance at 405 nm (gum arabic; [VHH] 3 μg/ml (200 nM), gum arabic − (well without gum arabic)): 0.075
- absorbance at 405 nm (potato lectin): 0.072
- binding to native potato leaf surface (fluorescence microscopy) [1]: binding leaf surface, stomata, glandular trichomes, and leaf hairs
- binding to native potato leaf surface (fluorescence microscopy) ([1]; listed as 5D4): clearly binding to trichomes, stomata and cuticle
